Assays:
[1] = biological target: EPHB2 (UniProt P29323); assay: phosphorylation enrichment, bacterial display (enrichment ratio); higher = better substrate or ligand; peptides without Tyr show the background
[2] = biological target: Fes (UniProt P07332); assay: as above
[3] = biological target: Fyn (UniProt P06241); assay: as above
[4] = biological target: Jak2 (UniProt O60674); assay: as above
[5] = system: AncSZ; assay: as above
[6] = biological target: Hck (UniProt P08631); assay: as above
[7] = biological target: MERTK (UniProt Q12866); assay: as above
[8] = system: Fer (mouse); assay: as above
[9] = biological target: FGFR3 (UniProt P22607); assay: as above
[10] = biological target: EPHB1 (UniProt P54762); assay: as above
[11] = system: c-Abl (mouse); assay: as above
[12] = system: c-Src; assay: as above
[13] = biological target: FGFR1 (UniProt P11362); assay: as above
[14] = biological target: SHP2-C SH2; assay: SH2 binding enrichment of the phosphorylated peptide, bacterial display (enrichment ratio); higher = better substrate or ligand; peptides without Tyr show the background
[15] = biological target: c-Src SH2; assay: as above
[16] = biological target: Grb2 SH2 (UniProt P62993); assay: as above
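Throughout, for SH2 binding enrichment of the phosphorylated peptide, bacterial display: peptide library displayed on the E. coli surface as eCPX fusions, selected cells deep-sequenced, score is each peptide's frequency after selection divided by its frequency in the input.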
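Throughout, for phosphorylation enrichment, bacterial display: 11-residue human phosphosite peptides and single-mutation variants displayed on the E. coli surface, counted by deep sequencing, each peptide's frequency after selection divided by its frequency in the unselected input library; frequency after pTyr selection over input frequency; kinase dosed for 20-30% of maximal phosphorylation in three min.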

Sequence of FGFR1 (P11362 whole entry, looked up): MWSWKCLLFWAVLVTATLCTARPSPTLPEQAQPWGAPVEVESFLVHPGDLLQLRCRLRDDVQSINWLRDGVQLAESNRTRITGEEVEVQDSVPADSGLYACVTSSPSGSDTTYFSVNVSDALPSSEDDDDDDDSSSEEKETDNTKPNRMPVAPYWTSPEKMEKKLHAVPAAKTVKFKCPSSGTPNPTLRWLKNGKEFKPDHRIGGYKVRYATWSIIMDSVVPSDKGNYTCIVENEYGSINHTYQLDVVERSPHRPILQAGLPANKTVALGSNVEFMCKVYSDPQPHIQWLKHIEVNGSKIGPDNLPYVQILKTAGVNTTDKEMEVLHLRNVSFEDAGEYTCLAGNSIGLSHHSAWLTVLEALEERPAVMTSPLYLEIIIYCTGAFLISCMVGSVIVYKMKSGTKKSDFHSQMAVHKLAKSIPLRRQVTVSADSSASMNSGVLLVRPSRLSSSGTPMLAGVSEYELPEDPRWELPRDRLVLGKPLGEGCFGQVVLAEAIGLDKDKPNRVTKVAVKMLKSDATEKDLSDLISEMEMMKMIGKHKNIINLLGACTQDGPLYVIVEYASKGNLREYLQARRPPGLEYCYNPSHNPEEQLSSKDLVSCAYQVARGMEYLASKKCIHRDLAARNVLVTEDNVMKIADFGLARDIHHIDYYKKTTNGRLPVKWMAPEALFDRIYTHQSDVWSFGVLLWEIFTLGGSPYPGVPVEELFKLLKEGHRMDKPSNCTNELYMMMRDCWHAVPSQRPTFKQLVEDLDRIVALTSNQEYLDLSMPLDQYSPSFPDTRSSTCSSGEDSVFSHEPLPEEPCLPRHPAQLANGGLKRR
Sequence of Fes (P07332 whole entry, looked up): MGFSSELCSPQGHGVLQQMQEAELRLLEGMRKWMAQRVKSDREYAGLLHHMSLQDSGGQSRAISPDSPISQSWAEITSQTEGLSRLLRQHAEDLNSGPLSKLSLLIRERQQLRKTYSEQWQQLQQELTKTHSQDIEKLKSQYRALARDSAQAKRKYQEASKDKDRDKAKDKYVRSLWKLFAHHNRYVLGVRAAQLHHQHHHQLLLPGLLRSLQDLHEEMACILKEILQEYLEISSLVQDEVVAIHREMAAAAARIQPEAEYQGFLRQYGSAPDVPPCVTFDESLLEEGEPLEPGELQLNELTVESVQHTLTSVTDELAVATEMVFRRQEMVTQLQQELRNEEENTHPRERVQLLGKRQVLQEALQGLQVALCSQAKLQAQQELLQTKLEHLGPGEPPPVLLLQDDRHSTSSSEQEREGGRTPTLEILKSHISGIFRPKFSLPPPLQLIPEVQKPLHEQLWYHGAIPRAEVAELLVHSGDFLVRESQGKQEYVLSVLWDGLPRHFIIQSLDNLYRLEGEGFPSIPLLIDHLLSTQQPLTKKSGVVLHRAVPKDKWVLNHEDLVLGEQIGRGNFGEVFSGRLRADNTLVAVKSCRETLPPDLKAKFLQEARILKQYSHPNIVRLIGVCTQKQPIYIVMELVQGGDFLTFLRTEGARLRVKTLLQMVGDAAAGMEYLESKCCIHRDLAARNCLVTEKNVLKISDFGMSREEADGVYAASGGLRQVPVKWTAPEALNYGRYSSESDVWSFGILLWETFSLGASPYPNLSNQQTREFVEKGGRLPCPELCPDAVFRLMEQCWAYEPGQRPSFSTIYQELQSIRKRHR
Sequence of EPHB2 (P29323 whole entry, looked up): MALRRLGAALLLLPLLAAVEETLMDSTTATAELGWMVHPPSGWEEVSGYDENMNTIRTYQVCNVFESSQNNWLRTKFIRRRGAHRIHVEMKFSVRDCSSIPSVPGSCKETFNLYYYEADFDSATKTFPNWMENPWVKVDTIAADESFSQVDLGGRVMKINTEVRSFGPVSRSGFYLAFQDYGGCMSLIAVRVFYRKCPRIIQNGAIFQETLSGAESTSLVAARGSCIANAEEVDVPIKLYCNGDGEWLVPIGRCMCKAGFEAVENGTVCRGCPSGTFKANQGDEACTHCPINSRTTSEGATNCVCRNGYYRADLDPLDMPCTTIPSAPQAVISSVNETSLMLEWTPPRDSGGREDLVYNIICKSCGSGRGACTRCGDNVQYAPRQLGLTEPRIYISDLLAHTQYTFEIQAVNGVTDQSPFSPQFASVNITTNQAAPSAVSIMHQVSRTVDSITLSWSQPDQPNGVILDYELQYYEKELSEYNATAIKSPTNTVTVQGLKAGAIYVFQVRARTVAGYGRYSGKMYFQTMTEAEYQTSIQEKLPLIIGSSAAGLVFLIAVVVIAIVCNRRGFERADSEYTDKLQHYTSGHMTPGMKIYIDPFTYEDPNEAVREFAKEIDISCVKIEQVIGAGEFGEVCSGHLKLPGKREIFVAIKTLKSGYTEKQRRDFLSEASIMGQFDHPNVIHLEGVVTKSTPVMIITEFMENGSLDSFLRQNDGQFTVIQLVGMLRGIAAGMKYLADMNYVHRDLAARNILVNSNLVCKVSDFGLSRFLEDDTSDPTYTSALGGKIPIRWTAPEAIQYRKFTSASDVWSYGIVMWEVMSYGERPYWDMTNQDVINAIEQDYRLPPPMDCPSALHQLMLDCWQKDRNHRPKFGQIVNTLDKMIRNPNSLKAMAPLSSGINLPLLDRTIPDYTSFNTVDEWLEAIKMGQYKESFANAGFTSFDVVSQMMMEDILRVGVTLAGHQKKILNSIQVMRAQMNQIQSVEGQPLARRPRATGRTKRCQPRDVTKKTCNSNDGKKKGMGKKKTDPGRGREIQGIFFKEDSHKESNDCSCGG
Sequence of Fyn (P06241 whole entry, looked up): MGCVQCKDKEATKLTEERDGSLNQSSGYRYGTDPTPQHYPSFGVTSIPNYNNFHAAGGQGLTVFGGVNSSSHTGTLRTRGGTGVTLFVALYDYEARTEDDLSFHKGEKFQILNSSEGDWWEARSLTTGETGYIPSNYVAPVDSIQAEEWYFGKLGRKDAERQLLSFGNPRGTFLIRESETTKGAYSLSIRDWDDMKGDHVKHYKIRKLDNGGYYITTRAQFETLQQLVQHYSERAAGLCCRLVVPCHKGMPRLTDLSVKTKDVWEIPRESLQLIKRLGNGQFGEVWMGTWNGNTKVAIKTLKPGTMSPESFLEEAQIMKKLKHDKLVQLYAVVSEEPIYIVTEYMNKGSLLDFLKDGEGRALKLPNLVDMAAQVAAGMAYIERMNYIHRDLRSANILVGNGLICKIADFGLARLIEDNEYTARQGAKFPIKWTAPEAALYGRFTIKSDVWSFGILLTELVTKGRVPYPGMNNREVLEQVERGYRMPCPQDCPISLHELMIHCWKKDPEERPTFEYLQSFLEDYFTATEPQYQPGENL
Sequence of Jak2 (O60674 whole entry, looked up): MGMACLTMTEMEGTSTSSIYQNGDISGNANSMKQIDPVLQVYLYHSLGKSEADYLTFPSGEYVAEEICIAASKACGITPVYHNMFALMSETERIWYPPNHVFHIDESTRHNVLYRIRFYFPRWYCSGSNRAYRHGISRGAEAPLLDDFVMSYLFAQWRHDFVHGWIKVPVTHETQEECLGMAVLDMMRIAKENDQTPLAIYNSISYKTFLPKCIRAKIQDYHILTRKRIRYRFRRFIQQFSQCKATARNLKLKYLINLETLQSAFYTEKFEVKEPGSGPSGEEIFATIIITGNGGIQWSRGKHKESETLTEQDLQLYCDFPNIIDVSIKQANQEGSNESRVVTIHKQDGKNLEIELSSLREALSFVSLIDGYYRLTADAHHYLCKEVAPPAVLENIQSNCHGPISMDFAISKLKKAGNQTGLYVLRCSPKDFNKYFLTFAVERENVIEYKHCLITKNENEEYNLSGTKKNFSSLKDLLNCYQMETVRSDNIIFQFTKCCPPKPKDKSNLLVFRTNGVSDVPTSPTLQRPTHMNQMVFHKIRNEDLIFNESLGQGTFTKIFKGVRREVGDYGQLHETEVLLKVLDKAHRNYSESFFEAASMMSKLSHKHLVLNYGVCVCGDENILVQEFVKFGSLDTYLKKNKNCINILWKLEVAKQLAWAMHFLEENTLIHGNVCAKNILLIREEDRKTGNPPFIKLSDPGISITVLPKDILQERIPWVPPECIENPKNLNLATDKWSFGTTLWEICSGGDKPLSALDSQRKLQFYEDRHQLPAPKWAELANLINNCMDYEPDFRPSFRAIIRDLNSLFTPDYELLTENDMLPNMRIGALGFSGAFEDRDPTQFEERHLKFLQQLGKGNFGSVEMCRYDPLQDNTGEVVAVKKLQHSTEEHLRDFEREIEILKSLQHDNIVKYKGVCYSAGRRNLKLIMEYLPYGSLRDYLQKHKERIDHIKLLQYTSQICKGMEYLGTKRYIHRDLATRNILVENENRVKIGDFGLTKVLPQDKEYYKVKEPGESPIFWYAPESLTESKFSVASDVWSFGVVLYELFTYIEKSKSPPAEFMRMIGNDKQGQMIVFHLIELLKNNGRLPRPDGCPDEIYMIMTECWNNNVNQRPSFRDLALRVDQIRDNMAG
Sequence of Hck (P08631 whole entry, looked up): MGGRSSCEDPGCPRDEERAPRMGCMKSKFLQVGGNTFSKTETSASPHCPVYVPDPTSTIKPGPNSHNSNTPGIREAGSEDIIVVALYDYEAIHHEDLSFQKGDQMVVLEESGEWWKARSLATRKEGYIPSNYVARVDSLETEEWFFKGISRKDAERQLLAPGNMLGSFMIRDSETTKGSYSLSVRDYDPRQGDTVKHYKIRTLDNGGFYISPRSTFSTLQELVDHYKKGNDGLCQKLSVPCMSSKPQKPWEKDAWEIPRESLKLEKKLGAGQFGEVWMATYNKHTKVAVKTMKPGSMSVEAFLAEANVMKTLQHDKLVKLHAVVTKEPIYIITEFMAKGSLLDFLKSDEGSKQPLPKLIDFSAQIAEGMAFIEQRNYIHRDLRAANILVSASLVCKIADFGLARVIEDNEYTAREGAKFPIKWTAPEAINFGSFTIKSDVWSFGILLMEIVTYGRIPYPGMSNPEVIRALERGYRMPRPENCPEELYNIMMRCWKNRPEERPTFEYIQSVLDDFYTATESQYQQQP

Row | SH2 binding enrichment [14] | SH2 binding enrichment [15] | SH2 binding enrichment [16] | Sequence | phosphorylation enrichment [1] | phosphorylation enrichment [2] | phosphorylation enrichment [3] | phosphorylation enrichment [4] | phosphorylation enrichment [5] | phosphorylation enrichment [6] | phosphorylation enrichment [7] | phosphorylation enrichment [8] | phosphorylation enrichment [9] | phosphorylation enrichment [10] | phosphorylation enrichment [11] | phosphorylation enrichment [12] | phosphorylation enrichment [13]
1 | 1.12 | 0.499 | 0.856 | NTPNAYLRVNV [ADD2_Y440_T439A] | 0.465 | 0.934 | 0.437 | 0.806 | 0.868 | 0.469 | 0.404 | 0.405 | 0.667 | 0.463 | 0.706 | 0.391 | 0.437
2 | 1.02 | 0.619 | 1.04 | NTQRPYFKGGG [TYROBP_Y111_YF] | 0.372 | 0.613 | 0.428 | 0.904 | 0.533 | 0.326 | 0.454 | 0.437 | 0.467 | 0.429 | 0.574 | 0.461 | 0.364
3 | 1.81 | 2.78 | 9.03 | NTYENYWPFYQ [GATM_Y103_K102N] | 22.2 | 4.54 | 9.01 | 5.55 | 2.72 | 7.34 | 9.93 | 8.56 | 12.4 | 17.2 | 2.79 | 7.27 | 14.3
4 | 1.35 | 3.85 | 0.752 | NVDGKYSYLKV [GRM3_Y478_G475D] | 0.59 | 0.878 | 0.444 | 0.825 | 0.705 | 0.554 | 0.559 | 0.515 | 0.507 | 0.569 | 0.557 | 0.432 | 0.563
5 | 0.587 | 0.405 | 0.768 | NWGSPYKSDGC [ZNF347_Y261_N264D] | 0.51 | 0.864 | 0.4 | 0.673 | 0.864 | 0.442 | 0.345 | 0.394 | 0.522 | 0.486 | 0.723 | 0.397 | 0.562
6 | 1.78 | 2.07 | 1.33 | PADCRYFTFPQ [GAMT_Y222_A224T_YF] | 0.483 | 1.53 | 0.61 | 2.88 | 1.1 | 0.761 | 1.66 | 0.68 | 1.09 | 0.613 | 0.944 | 2.58 | 1.2
7 | 0.663 | 0.611 | 1.05 | PATINYLFEKG [NDUFS8_Y84_P85L] | 0.529 | 0.891 | 0.357 | 0.703 | 0.754 | 0.562 | 0.36 | 0.43 | 0.963 | 0.541 | 0.293 | 0.435 | 0.796
8 | 0.761 | 1.65 | 0.662 | PDGHEYIFVDP [PDGFRA_Y572_YF] | 0.719 | 1.04 | 0.712 | 0.73 | 2.01 | 0.54 | 0.311 | 0.576 | 1.99 | 0.644 | 0.466 | 0.495 | 2.86
9 | 0.825 | 0.544 | 0.812 | PDMHSYVVRYN [GRIN2D_Y732_M733V] | 0.723 | 1.13 | 0.554 | 1.04 | 1.13 | 0.721 | 0.413 | 0.434 | 0.844 | 0.787 | 0.694 | 0.603 | 0.56
10 | 0.798 | 0.378 | 0.747 | PFDAEYGGGGG [AKR1B10_Y316_N313D] | 1.48 | 1.5 | 1.13 | 1.66 | 1.81 | 1.14 | 0.783 | 0.784 | 1.09 | 0.843 | 1.31 | 0.918 | 1.16
11 | 0.815 | 0.649 | 1.14 | PFTDPYFDFEI [ZC3H18_Y371_A368T_YF] | 0.64 | 1.88 | 2.06 | 2.84 | 2.52 | 1.17 | 0.898 | 2 | 12.4 | 0.835 | 1.03 | 5.82 | 16.2
12 | 1.37 | 1.02 | 1.22 | PGIRMYQVQYN [LRFN1_Y454] | 0.92 | 1.39 | 0.815 | 1.24 | 1.06 | 0.503 | 0.764 | 0.446 | 0.863 | 0.93 | 0.995 | 0.727 | 0.67
13 | 1.51 | 0.579 | 0.875 | PGNIVYSSLCG [BCOR_Y90] | 0.987 | 1.62 | 3.13 | 1.65 | 1.38 | 5.25 | 1.6 | 1.18 | 1.02 | 0.914 | 1.83 | 5.73 | 0.892
14 | 0.599 | 0.341 | 0.75 | PHQTIYGALMI [FGF23_Y70_S71G] | 0.711 | 1.07 | 10.6 | 0.721 | 0.849 | 7.87 | 0.796 | 3.41 | 0.838 | 0.679 | 1.36 | 5.96 | 0.57
15 | 0.911 | 0.67 | 0.922 | PIDLYYLMDLS [ITGB2_Y131] | 12.5 | 4.2 | 8.8 | 8.57 | 6.05 | 7.58 | 13.3 | 9.5 | 18.6 | 13.5 | 1.09 | 6.67 | 17.4
16 | 0.648 | 0.579 | 0.792 | PIPAAYNRFDQ [CDC73_Y290_YF] | 0.426 | 0.778 | 0.451 | 0.833 | 0.513 | 0.446 | 0.509 | 0.485 | 0.643 | 0.643 | 0.357 | 0.303 | 0.456

Row | SH2 binding enrichment [14] | SH2 binding enrichment [15] | SH2 binding enrichment [16] | Sequence | phosphorylation enrichment [1] | phosphorylation enrichment [2] | phosphorylation enrichment [3] | phosphorylation enrichment [4] | phosphorylation enrichment [5] | phosphorylation enrichment [6] | phosphorylation enrichment [7] | phosphorylation enrichment [8] | phosphorylation enrichment [9] | phosphorylation enrichment [10] | phosphorylation enrichment [11] | phosphorylation enrichment [12] | phosphorylation enrichment [13]
17 | 0.675 | 0.487 | 0.938 | PKDSAYVTWEP | 0.798 | 1.4 | 2.17 | 1.36 | 1.66 | 2.38 | 1.39 | 2.5 | 1.45 | 1.03 | 1.16 | 2.02 | 2.14
18 | 0.73 | 0.586 | 0.772 | PKGTGCIKTEL [STAT1_Y701_Y701C] | 0.54 | 1.27 | 0.443 | 0.808 | 1.05 | 0.689 | 0.74 | 0.726 | 0.759 | 0.774 | 1.04 | 0.457 | 0.558
19 | 1.12 | 0.551 | 0.891 | PLDEEYFTLQI [TP53_Y327_G325E] | 0.888 | 2.25 | 1.91 | 2.57 | 2.96 | 1.2 | 0.941 | 0.691 | 4.54 | 1.02 | 1.13 | 2.69 | 4.65
20 | 0.539 | 0.596 | 0.767 | PLDGEYFTLRI [TP53_Y327_Q331R] | 1.04 | 2.19 | 2.55 | 2.88 | 2.77 | 1.76 | 0.45 | 0.971 | 5 | 1.04 | 1.93 | 3.13 | 6.1
21 | 0.634 | 0.574 | 0.82 | PLFKIYVAELI [MRPL28_Y230] | 0.772 | 2.35 | 0.658 | 1.71 | 2.14 | 0.738 | 0.707 | 0.978 | 1.54 | 0.919 | 0.947 | 0.791 | 0.806
22 | 0.638 | 1.54 | 0.807 | PLQKIYNYNVL [SLC4A1_Y553_T552I] | 1.05 | 1 | 0.409 | 1.05 | 0.585 | 0.564 | 1.09 | 0.582 | 1.04 | 0.773 | 0.748 | 1.32 | 0.514
23 | 0.646 | 1.08 | 1.04 | PMDTFYDSTRG [DYNC2H1_Y2231_YF] | 1.04 | 1.05 | 0.982 | 0.892 | 1.08 | 1.71 | 0.501 | 1.43 | 0.806 | 0.919 | 0.582 | 0.664 | 0.714
24 | 0.474 | 0.421 | 0.724 | PMFTKYGNGLL [RPGRIP1L_Y196_S199G] | 0.525 | 1.1 | 0.494 | 1.09 | 1.28 | 0.534 | 0.518 | 0.71 | 0.668 | 0.762 | 1.31 | 0.79 | 0.496
25 | 0.6 | 0.605 | 1.14 | PMQLPYDSRWE [PDGFRA_Y582] | 0.623 | 0.854 | 0.665 | 0.821 | 1.05 | 0.706 | 0.353 | 0.485 | 0.712 | 0.472 | 0.577 | 0.893 | 0.523
26 | 0.676 | 0.557 | 0.847 | PNRILYRDFRQ [MYH7_Y715_G716R] | 0.615 | 0.778 | 0.307 | 0.79 | 0.633 | 0.452 | 0.574 | 0.373 | 0.573 | 0.544 | 0.74 | 0.485 | 0.472
27 | 0.508 | 0.551 | 0.729 | PPAPRYHDSAV [LZTR1_Y119_H121D] | 0.476 | 0.877 | 0.861 | 0.979 | 0.73 | 0.684 | 0.741 | 0.448 | 0.711 | 0.658 | 0.743 | 0.728 | 0.532
28 | 0.878 | 0.512 | 1.16 | PPGRSYSPFDF [TNS1_Y793_YF] | 0.599 | 0.81 | 0.635 | 0.843 | 0.824 | 0.6 | 0.598 | 1.1 | 0.75 | 0.4 | 0.602 | 0.497 | 0.505
29 | 0.709 | 0.461 | 1.01 | PPKFFYTRKLL [CYBB_Y41] | 0.683 | 0.801 | 0.779 | 0.658 | 1.12 | 0.462 | 0.766 | 0.513 | 0.614 | 0.457 | 0.694 | 0.439 | 1.22
30 | 82.1 | 2.6 | 0.759 | PQAVTYAKVKH [LILRB4_Y360] | 0.286 | 0.515 | 0.294 | 0.577 | 0.405 | 0.509 | 0.339 | 0.424 | 0.334 | 0.421 | 0.573 | 0.708 | 0.398
31 | 85.4 | 3.11 | 0.851 | PQAVTYATVKH [LILRB4_Y360_K362T] | 0.615 | 0.776 | 1.72 | 0.882 | 0.655 | 2.92 | 0.543 | 0.624 | 0.607 | 0.735 | 0.856 | 2.83 | 0.423
32 | 5.59 | 1.12 | 0.85 | PQDVTYARLHS [LILRB4_Y412_Q414R] | 0.797 | 1.51 | 1.91 | 0.518 | 0.757 | 4.33 | 0.735 | 0.786 | 0.603 | 0.808 | 0.842 | 2.3 | 0.774

Row | Sequence | SH2 binding enrichment [14] | SH2 binding enrichment [15] | SH2 binding enrichment [16] | phosphorylation enrichment [1] | phosphorylation enrichment [2] | phosphorylation enrichment [3] | phosphorylation enrichment [4] | phosphorylation enrichment [5] | phosphorylation enrichment [6] | phosphorylation enrichment [7] | phosphorylation enrichment [8] | phosphorylation enrichment [9] | phosphorylation enrichment [10] | phosphorylation enrichment [11] | phosphorylation enrichment [12] | phosphorylation enrichment [13]
33 | PPPELYFVKVD [TERT_Y707] | 1.04 | 0.534 | 1.18 | 0.49 | 1.81 | 0.962 | 2.84 | 1.76 | 1.4 | 2.69 | 0.626 | 1.28 | 0.629 | 1.19 | 1.55 | 0.638
